Experimental data taken from paper PMC6380602, “The polymeric immunoglobulin receptor-like protein from Marsupenaeus japonicus is a receptor for white spot syndrome virus infection” (PLoS Pathogens, 2019).

Biological target: the molecule itself
Test: cross-linking; BS3 (5 mM, 2 h, room temperature) on hemocytes of shrimp 30 min after WSSV injection, SDS-PAGE, western blotting with anti-MjpIgR antibodies; oligomer size by molecular mass

B1: native MjpIgR (Marsupenaeus japonicus polymeric immunoglobulin receptor-like protein) (receptor, UniProt A0A3S8D7Y1 1-562, looked up)
chain: QEYSVDEPNNRDVVFNGVQSSDVSLIFDDADIIVNPGERLDLNCGFQGQYRHCIWELEGAKPIQVQDVYDDVHPGMSRPEVSEGNECGIVINSVSTEQHGKWTCRVFITGNSLEGSKKVIVTVKPTYPILEVDNSQLLEVTSDAETPVKCVVAAARPAVGIRWFLGDKDVTVMAETEETPTDNEGMYKSISTLRRTFEPMENGMMLVCSVSHKTLTVPENASIPLNVVFKPVEKPVSTYYQIRPGSDYEVKLNFSANPPPTRKEWRYGDTFQNIAVSIEIPGAKDRYETYIEELGNGMYTATLRIAGFKEEDANQRYMLVVQNDLGETSYKVRLSMDDAPKDGDSETRDHDKNPSTEYSVSEGIVFDDDTMSNTLSGGAVAGIVIVVLIIVTAVAAAGYARYRQMFCFAPVVTPDPEEGKETKEEHSDTESARGANTTRAANLKNSLGRLTQVFKKPKKEQETKLENIGDDEKRSLTTEDPKKGSPIKEQNVDDKEVVYAELDLGKSESDKKTEVKAEDKTEYAQIVGTVTDNREDEKKE
notes: also called pIgR-like protein; source: endogenous, hemocytes of M. japonicus 30 min after WSSV injection
stoichiometry N: 4
